Results reported in paper PMC5018218.

Legend:
Test in all cases: EMSA
DmcElp3 9-459 = DmcElp3 9-459 (Dehalococcoides mccartyi, UniProt A0A1C7D1B7 9-459)
[1] = biological target: DmcElp3 wild type (dimer) (Dehalococcoides mccartyi, UniProt A0A1C7D1B7 1-459)
[2] = biological target: DmcElp3 wild type (monomer) (Dehalococcoides mccartyi, UniProt A0A1C7D1B7 1-459)
DmcElp3 K2A K3A = DmcElp3 K2A K3A (Dehalococcoides mccartyi, UniProt A0A1C7D1B7 1-459, K2A;K3A)
DmcElp3 R6A = DmcElp3 R6A (Dehalococcoides mccartyi, UniProt A0A1C7D1B7 1-459, R6A)

B1: D. mccartyi tRNAGlu-1 (UUC) (structured_RNA)
RNA: GCCCCCAUCGUCUAGAGGCCCAGGACAGCGGCCUUUCACGCCGUCAACAGGGGUUCGAAUCCCCUUGGGGGUACCA
In the case of B1, the binding result (DmcElp3 9-459) is reported as “no binding”, the Kd [1] is reported as ~4 µM and the Kd [2] is reported as ~4 µM. B1: no binding (DmcElp3 K2A K3A); no binding (DmcElp3 R6A).
